Measured values from paper PMC9304225.
Several values for one entry are separate records, joined by “and”; a condition that tells them apart may be missing. Identical values can stand only once.

Columns and labels:
[1] = target: RING_(MUL1):UBE2D2 complex (UniProt Q969V5); test: ITC
[2] = target: UBE2D2 (UniProt P62837); test: ITC
[3] = target: p53 transactivation domain (residues 1–73) (human) (UniProt P04637); test: NMR titration
Sequence of p53 transactivation domain (residues 1–73) (human) (P04637 1-73): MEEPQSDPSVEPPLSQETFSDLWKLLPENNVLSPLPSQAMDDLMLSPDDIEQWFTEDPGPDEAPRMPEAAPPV

Sequence of p53 transactivation domain (residues 1–73) (P04637 1-73): as above
Sequence of RING domain of MUL1 (residues 298–352) (Q969V5 298-352): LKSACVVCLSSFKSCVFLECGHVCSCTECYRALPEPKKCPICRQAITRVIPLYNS

AD39 peptide (p53 residues 39–57)
Kd [1]: 184 µM and 175 µM and 193 µM | dH [1]: -1.13 kcal/mol and -1.15 kcal/mol and -1.12 kcal/mol | stoichiometry N [1]: 0.88 and 0.89 and 0.87

RING domain of MUL1 (residues 298–352) (from UniProt Q969V5 298-352) (domain or fragment)
Kd [2]: 43 µM and 28 µM and 13 µM | dH [2]: 1.5 kcal/mol

RING_(MUL1):UBE2D2 complex (from UniProt Q969V5 298-352; P62837 1-147)
Kd [3]: 171 µM

UBE2D2 (from UniProt P62837 1-147) (enzyme)
Kd [3]: 735 µM

p53 transactivation domain (residues 1–73) (from UniProt P04637 1-73) (domain or fragment)
Kd [1]: 111 µM | dH [1]: -0.673 kcal/mol | stoichiometry N [1]: 1.01
